This passage reports Kd results from publication doi:10.1101/2025.09.09.675108 (bioRxiv, 2025).

Non-standard residues stand in square brackets, D forms with d. *: point of attachment. FITC = O=C1OC2(c3ccc(O)cc3Oc3cc(O)ccc32)c2ccc(NC(=S)*)cc21; pT = C[C@@H](OP(=O)(O)O)[C@H](N)C(=O)O

What all share (assay): fluorescence polarisation
On the technique in general: Fluorescence polarisation rises when a labelled molecule tumbles more slowly, as on binding a larger partner.

Experiment [1] concerns the target DDIAS pS993 peptide (FITC-ETRSAWpSPELFS-NH2).
In experiment [2] the target is DDIAS pS676 peptide (FITC-SYDAp…-NH2).
Experiment [3] has as its target recombinant TOPBP1 BRCT7/8 domain (amino acids 1264-1493), WT (UniProt Q92547 1264-1493).

Usually Kd stands for the free concentration of one partner at which half of the binding sites on the other are occupied at equilibrium, for simple one-to-one binding.

Sequence of recombinant TOPBP1 BRCT7/8 domain (amino acids 1264-1493), WT (Q92547 1264-1493): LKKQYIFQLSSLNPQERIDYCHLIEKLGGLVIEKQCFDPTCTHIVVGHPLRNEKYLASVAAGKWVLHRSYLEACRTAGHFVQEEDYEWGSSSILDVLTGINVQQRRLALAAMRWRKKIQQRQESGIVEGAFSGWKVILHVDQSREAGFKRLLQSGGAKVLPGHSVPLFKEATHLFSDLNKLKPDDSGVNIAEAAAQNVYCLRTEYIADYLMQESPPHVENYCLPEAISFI

As for “recombinant TOPBP1 BRCT7/8 domain (amino acids 1264-1493), WT (from UniProt Q92547 1264-1493) (domain or fragment)”, the figures for the Kd in experiment [1] and in experiment [2] were 1200 nM and 300 nM, respectively.

B1: pBRIP1 peptide (FITC-ESIYFpTPELYDPEDT-NH2) (peptide)
peptide: {FITC}-ESIYF[pT]PELYDPEDT-NH2
Turning to B1, the Kd in experiment [3] is 200 nM.
